Laboratory results taken from patent publication US20260183411A1, “TARGETING SORTILIN” (priority 2024, published 2026).
Where no end group is shown, it is not given here. [ ]: non-standard residue; d: D form. Cba = N[C@@H](CC1CCC1)C(=O)O; Tle = CC(C)(C)[C@H](N)C(=O)O

T1: rat SORT1 (76-752)-His (rat, UniProt O54861 76-752)
T1 construct: range 76-752; Amine-coupled to CM5 chip for SPR
T1 sequence (looked up): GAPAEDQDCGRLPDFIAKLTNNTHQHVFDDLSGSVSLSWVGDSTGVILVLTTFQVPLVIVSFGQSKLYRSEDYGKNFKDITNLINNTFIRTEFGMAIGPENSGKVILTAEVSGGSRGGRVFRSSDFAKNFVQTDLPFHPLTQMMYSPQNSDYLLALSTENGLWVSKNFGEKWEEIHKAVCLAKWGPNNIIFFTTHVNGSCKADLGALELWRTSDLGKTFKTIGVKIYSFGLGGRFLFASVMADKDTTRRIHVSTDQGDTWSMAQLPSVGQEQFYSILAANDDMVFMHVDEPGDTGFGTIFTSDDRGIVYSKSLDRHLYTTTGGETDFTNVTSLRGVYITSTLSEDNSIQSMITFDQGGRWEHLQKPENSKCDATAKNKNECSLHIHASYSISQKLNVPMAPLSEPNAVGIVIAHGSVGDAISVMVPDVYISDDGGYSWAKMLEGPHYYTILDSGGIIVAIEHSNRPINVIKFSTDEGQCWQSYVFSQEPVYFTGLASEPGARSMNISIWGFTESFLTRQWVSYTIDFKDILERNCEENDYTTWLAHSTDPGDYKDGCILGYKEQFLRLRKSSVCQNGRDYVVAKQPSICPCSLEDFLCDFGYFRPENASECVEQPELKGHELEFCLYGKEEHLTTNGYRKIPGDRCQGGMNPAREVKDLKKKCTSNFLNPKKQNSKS

T2: cyno SORT1 (76-753)-His (cyno, UniProt A0A2K5VHG2 74-751)
T2 construct: range 76-753; Amine-coupled to CM5 chip for SPR
T2 sequence: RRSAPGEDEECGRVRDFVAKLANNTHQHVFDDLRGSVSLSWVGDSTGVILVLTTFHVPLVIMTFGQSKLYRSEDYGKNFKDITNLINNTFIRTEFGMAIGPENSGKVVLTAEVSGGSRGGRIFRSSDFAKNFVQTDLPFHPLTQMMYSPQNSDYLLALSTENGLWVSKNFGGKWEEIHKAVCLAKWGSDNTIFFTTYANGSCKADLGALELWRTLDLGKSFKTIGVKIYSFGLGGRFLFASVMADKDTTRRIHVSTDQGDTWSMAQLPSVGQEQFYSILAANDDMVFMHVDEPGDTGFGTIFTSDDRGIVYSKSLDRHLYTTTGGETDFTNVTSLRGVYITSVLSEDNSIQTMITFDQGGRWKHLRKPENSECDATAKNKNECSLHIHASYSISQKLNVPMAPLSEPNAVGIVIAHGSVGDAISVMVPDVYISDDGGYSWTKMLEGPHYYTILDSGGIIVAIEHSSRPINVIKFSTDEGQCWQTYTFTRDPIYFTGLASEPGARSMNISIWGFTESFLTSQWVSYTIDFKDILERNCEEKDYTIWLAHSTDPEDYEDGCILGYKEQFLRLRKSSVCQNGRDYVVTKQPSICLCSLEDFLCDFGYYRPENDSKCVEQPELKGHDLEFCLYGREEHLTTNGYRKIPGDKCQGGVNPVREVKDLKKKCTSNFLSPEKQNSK

T3: mouse SORT1 (76-753)-His (mouse, UniProt Q6PHU5 76-753)
T3 construct: range 76-753; Amine-coupled to CM5 chip for SPR
T3 sequence (looked up): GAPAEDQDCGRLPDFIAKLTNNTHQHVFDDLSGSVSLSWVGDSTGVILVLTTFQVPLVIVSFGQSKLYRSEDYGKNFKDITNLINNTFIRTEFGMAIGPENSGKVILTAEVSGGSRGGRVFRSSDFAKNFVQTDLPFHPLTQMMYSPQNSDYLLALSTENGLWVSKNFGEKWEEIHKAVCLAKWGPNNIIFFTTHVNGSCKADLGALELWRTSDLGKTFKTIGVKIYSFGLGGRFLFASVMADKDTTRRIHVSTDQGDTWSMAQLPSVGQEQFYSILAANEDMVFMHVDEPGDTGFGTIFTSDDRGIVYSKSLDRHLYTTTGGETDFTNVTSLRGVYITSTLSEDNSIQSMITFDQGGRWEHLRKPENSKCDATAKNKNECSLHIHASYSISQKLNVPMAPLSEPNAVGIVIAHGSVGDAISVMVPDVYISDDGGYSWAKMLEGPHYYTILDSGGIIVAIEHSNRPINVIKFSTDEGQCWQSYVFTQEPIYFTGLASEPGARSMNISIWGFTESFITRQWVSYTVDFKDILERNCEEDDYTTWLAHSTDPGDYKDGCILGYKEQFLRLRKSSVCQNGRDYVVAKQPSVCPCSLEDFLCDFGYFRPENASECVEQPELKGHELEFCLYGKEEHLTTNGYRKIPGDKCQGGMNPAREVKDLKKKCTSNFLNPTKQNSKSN

T4: SORT1 on cells (HEK293 cells transiently transfected with / overexpressing SORT1); SORT1-expressing MDA-MB-231 … (UniProt Q99523 78-831, limits assumed)
T4 sequence (looked up): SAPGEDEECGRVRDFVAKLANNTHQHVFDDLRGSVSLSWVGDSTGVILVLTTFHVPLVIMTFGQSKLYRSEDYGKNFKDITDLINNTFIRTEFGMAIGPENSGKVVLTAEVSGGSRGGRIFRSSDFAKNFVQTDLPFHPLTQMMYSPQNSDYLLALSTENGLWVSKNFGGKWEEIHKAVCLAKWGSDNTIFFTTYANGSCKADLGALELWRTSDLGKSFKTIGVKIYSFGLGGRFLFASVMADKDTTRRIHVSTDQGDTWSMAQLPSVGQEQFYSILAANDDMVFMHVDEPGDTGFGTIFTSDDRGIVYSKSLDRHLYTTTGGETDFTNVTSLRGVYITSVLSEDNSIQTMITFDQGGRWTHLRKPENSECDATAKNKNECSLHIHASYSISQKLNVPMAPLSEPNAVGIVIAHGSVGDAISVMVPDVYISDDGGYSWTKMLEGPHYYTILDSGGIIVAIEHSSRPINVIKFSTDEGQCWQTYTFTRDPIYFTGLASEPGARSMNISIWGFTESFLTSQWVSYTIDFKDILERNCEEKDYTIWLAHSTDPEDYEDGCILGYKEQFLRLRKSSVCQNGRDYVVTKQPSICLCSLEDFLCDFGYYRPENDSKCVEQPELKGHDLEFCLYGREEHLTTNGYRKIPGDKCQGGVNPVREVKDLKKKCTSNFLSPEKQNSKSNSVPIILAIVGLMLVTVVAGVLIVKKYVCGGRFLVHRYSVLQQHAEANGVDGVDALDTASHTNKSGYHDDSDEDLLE

B1: SORT1 peptide 2 conjugate (peptide)
peptide: APRWDAPLRDPALRQ[Tle][Cba]
modifications: also: conjugated to siRNA targeting a housekeeping gene mRNA, linker and handle not given here
notes: also called SORT1 peptide 2 siRNA conjugate; Arb-SAR-Q15_PDC2
B2: Peptide 2-GAPDH6-SPDP (peptide)
peptide: CXXXXXAPRWDAPLRDPALRQXX
modifications: N-terminal Ac; Cys 1 side chain in a disulphide with SPDP on the 5' end of the sense strand of GAPDH siRNA; 2: (bAla); 3-6: (Sar); 22: (B13); 23: (G48)
B3: Peptide 2-GAPDH6-BCN (peptide)
peptide: XXXXXXAPRWDAPLRDPALRQXX
modifications: N-terminal 6-azidohexanoic acid joined by a triazole to hexyl-BCN on the 5' end of the sense strand of GAPDH siRNA; 1: (bAla); 2-5: (Sar); 21: (B13); 22: (G48)
B4: Peptide 2-GAPDH6-thiol (peptide)
peptide: XXXXXAPRWDAPLRDPALRQXX
modifications: not fully specified; N-terminal maleimide joined by a thioether to 6-mercaptohexanoic acid on the 5' end of the sense strand of GAPDH siRNA; 1: (bAla); 2-5: (Sar); 21: (B13); 22: (G48)
B5: SORT1 peptide 1 conjugate (peptide)
peptide: APRWDAPLRDPALRQLL
modifications: also: conjugated to siRNA, linker and handle not given here
notes: also called SORT1 peptide 1 siRNA conjugate

Key:
[1] = Maximum tolerated dose (MTD) study; format: in vivo, mouse; conditions: 10 mg/kg i.v. single dose
Procedure: BALB/c Nude mice, female, 6-8 weeks, weighing approximately 18-22 g were purchased from the Shanghai SLAC Laboratory Animal Co., LTD. MTD studies were conducted at WuXi AppTec and the care and use of animals was conducted in accordance with the regulations of the Association for Assessment and Accreditation of Laboratory Animal Care (AAALAC). Two MTD studies were performed (a) a low dose study with doses ranging from 0.1, 0.5, 1 and 3 mg/kg and (b) a high dose study with doses ranging from 3, 5, 10 mg/kg. Dosing volume was determined based on body weight (10 ul/g) and PDCs were dissolved in 25 mM Histidine 10% sucrose pH 7 and administered i.v. at a single dose at day 0. The treatment and observation were conducted up to 7 days and MTD was defined by ≥20% body weight loss. Body weights were measured daily, death and observed clinical signs were recorded.
Doses of 3, 5, and 10 mg/kg were administered. MTD was defined by ≥20% body weight loss and body weight measured daily.

[2] = biological target: T1, rat SORT1 (76-752)-His; experiment: SPR (Biacore 8K), SORT1 on CM5 chip, siRNA-peptide conjugate as analyte, 1:1 model
Procedure: (§1) SPR analysis was performed on Series S CM5 chips (Cytiva) using a Biacore 8K instrument (Cytiva). Sensorgrams were double-referenced by subtracting the response on both a reference flow cell and a blank sample. Human SORT1 (78-755)-His (Acrobiosystems), human SORT1 (78-755)-His(GenScript), mouse SORT1 (76-753)-His (R&D Systems), rat SORT1 (76-752)-His (GenScript), and cyno SORT1 (76-753)-His (GenScript) were diluted to 20-60 μg/mL in 10 mM sodium acetate pH 4.5 buffer and immobilized onto Series S CM5 chips using amine coupling at a flow rate of 10 μL/min for 45-100 s.
(§2) Ten start-up cycles and a blank cycle preceded each analysis run. The runs were performed by sequential injections of analyte (0-20 nM, 3-fold serial dilutions) with a 90 s association and 900 s dissociation at a flow rate of 30 μL/min, followed by two regeneration cycles with 2 M MgCl2 for 90 s at a flow rate of 10 μL/min. […] Five start-up cycles and a blank cycle preceded each analysis run. The runs were performed by sequential injections of analyte (0-25 nM) with a 150 seconds (s) association and 300 s dissociation at a flow rate of 30 μL/min, followed by a regeneration with 2 M MgCl₂ for 200 s at a flow rate of 10 μL/min. The kinetic rate constants (kₐ and kd) and the equilibrium binding constant (Kd) were calculated using a 1:1 kinetic binding model on the Biacore Insight Evaluation Software (Cytiva).
(§3) SPR analysis was performed on Series S CM5 chips (Cytiva) using a Biacore 8K instrument (Cytiva). Sensorgrams were double-referenced by subtracting the response on both a reference flow cell and a blank sample. The SPR analysis was conducted using four different SORT1 species: Human SORT1, Mouse SORT1, Rat SORT1, and Cyno SORT1. The samples were prepared according to the general procedure described above herein. The kinetic rate constants (ka and […]) and the equilibrium binding constant (Kd) were calculated using a 1:1 kinetic binding model on the Biacore Insight Evaluation Software (Cytiva).

[3] = biological target: T2, cyno SORT1 (76-753)-His; experiment: as above
Procedure: as §1, §2, §3

[4] = biological target: T3, mouse SORT1 (76-753)-His; experiment: as above
Procedure: as §1, §2, §3

[5] = biological target: T4, SORT1 on cells (HEK293 cells …); experiment: cell-based or functional assay

| Molecule | Kd [2] [nM] | Kd [3] [nM] | Kd [4] [nM] | GAPDH mRNA % knockdown compared to untreated cells (RT-qPCR), HEK293 + SORT1 - CQ [5] [%] | further results |
| --- | --- | --- | --- | --- | --- |
| CC[C@H](C)[C@@H]([C@@H](CC(=O)N1CCC[C@H]1[C@H](OC)[C@@H](C)C(=O)N[C@H](C)[C@@H](O)c1ccccc1)OC)N(C)C(=O)[C@@H](NC(=O)[C@H](C(C)C)N(C)C(=O)OCc1ccc(NC(=O)[C@H](CCCNC(N)=O)NC(=O)[C@@H](NC(=O)CCCC(=O)NCCC(=O)N(C)CC(=O)N(C)CC(=O)N(C)CC(=O)N(C)CC(=O)N[C@@H](CC(=O)O)C(=O)N[C@@H](CC(=O)O)C(=O)N2CCC[C@H]2C(=O)N[C@@H](CCCNC(=N)N)C(=O)N[C@@H](C)C(=O)N2CCC[C@H]2C(=O)N[C@@H](Cc2c[nH]c3ccccc23)C(=O)N2CCC[C@H]2C(=O)N[C@@H](C)C(=O)N[C@@H](CC(C)C)C(=O)N[C@@H](CCC(N)=O)C(=O)N[C@@H](CCCNC(=N)N)C(=O)N[C@@H](CC(C)C)C(=O)N[C@@H](C)C(=O)N[C@@H](CC(C)C)C(=O)N[C@@H](CCCNC(=N)N)C(=O)N[C@@H](CC(C)C)C(=O)O)C(C)C)cc1)C(C)C [PRGN_RL_PDC] | – | – | – | – | toxicity [1]: mild toxicity |
| B1 | 14.6 | 4.81 | 8.56 | – | – |
| B2 | – | – | – | 36 | – |
| B3 | – | – | – | 47 | – |
| B4 | – | – | – | 40 | – |
| B5 | 49.2 | 16.8 | 30.2 | – | – |
